Experiments:
[1] = molecular target: bacterial produced, purified his-PAP I (UniProt P25500)
[2] = test system: 8-mer PAP CRM-derived peptide (SKIRILVG)
[3] = test system: 8-mer peptide of scrambled sequence (LRSGIKVI)

Sequence of bacterial produced, purified his-PAP I (P25500 other isoform, or with tags, fused parts or gaps): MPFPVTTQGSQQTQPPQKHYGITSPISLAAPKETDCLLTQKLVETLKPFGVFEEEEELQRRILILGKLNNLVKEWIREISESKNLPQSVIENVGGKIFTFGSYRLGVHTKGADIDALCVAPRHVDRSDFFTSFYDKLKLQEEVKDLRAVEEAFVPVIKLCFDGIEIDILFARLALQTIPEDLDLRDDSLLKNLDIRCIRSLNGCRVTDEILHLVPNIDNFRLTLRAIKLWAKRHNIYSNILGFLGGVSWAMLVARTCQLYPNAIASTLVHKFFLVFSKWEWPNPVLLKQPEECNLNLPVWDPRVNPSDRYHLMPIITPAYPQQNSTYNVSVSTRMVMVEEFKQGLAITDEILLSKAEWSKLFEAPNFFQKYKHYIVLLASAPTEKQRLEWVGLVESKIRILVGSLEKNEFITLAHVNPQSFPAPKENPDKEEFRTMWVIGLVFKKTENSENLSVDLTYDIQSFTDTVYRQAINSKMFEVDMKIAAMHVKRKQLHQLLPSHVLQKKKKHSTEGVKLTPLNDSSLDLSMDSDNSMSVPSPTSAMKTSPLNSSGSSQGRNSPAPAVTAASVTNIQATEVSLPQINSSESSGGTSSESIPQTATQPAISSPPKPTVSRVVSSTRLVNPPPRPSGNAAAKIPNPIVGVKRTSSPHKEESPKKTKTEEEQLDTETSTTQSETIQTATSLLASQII

Substance	32P incorporation into PAP (in vitro kinase assay, autoradiography) [1]	pRB phosphorylation by cyclin A/cdk2 (in vitro kinase assay, 32P, autoradiography; peptide at 9 µM and 18 µM) [2]	pRB phosphorylation by cyclin A/cdk2 (in vitro kinase assay, 32P; peptide at 9 µM and 18 µM) [3]	pRB phosphorylation by cyclin B1/cdc2 (in vitro kinase assay, 32P; peptide at 18 µM) [2]
human cyclin A/flu-tagged cdk2	32P was efficiently incorporated into PAP	PAP's CRM effectively inhibited pRB phosphorylation by cyclin A/cdk2 (lanes 2 and 3)	a peptide with PAP's CRM scrambled was also tested, and it showed no effect on pRB phosphorylation (lanes 4 and 5)	
human cyclin B1/flu epitope-tagged p34cdc2				PAP's CRM also strongly and specifically inhibited phosphorylation of pRB by cyclin B1/cdc2

Source: patent US6696546
